What was measured:
[1] = target: T1, AMH3647-25 (Horse sequence) (Horse); assay: competition ELISA, antibody preincubated with target, AMH-coated plate
T1 peptide: GLIFHQDWDWPP

[2] = target: T2, AMH3647-13 (Rat sequence) (Rat); assay: as above
T2 peptide: GLIFLEDGVWPP

[3] = target: T3, AMH3647-18 (Simum sequence) (Simum); assay: as above
T3 peptide: GLIFRQDWDWPP

[4] = target: T4, AMH3647-20 (Goat sequence) (Goat); assay: as above
T4 peptide: TLIFQQDWDWPL

[5] = target: T5, AMH3647-24 (Owl sequence) (Owl); assay: as above
T5 peptide: GLIFGEDVDWPP

[6] = target: T6, AMH3647-16 (Degu sequence) (Degu); assay: as above
T6 peptide: GLIFPEDWVWPP

[7] = target: T7, AMH3647-15 (Guinea pig sequence) (Guinea pig); assay: as above
T7 peptide: GLIFPEDQVWPP

[8] = target: T8, AMH3647-9 (Horseshoe bat sequence) (Horseshoe bat); assay: as above
T8 peptide: GLIFHQDWDWSP

[9] = target: T9, AMH3647-12 (Gerbil sequence) (Gerbil); assay: as above
T9 peptide: GLIFLEDGLWPP

[10] = target: T10, AMH3647-6 (Otolemur sequence) (Otolemur); assay: as above
T10 peptide: GLIFHKDWDWQP

AMH3647-7 (Cat sequence) = target: T11, AMH3647-7 (Cat sequence) (Cat); assay: as above
T11 peptide: GLIFHPDWDWQP

[11] = target: T12, AMH3647-1 (Deer sequence) (Deer); assay: as above
T12 peptide: ALIFQQDWDWPL

[12] = target: T13, AMH3647-23 (Cattle sequence) (Cattle); assay: as above
T13 peptide: ALIFQQAWDWPL

[13] = target: T14, AMH3647-11 (Neotoma sequence) (Neotoma); assay: as above
T14 peptide: GLIFLEDGIWPP

[14] = target: T15, AMH3647-17 (Chimpanzee sequence) (Chimpanzee); assay: as above
T15 peptide: GLIFPEDLDWPP

[15] = target: T16, AMH3647-22 (Mouse sequence) (Mouse); assay: as above
T16 peptide: GLIFLEDELWPP

[16] = target: T17, AMH3647-3 (Hamster sequence) (Hamster); assay: as above
T17 peptide: GLIFFEDGIWPL

[17] = target: T18, AMH3647-2 (Beaver sequence) (Beaver); assay: as above
T18 peptide: DLIFHEDWAWPP

[18] = target: T19, AMH3647-4 (Lemur sequence) (Lemur); assay: as above
T19 peptide: GLIFHEDWDWLP

[19] = target: T20, AMH3647-19 (Dog sequence) (Dog); assay: as above
T20 peptide: GLLFQPDWDWPP

[20] = target: T21, AMH3647-8 (Myotis sequence) (Myotis); assay: as above
T21 peptide: GLIFHQDWDWPA

[21] = target: T22, AMH truncated antigen 36-47 (human); assay: as above
T22 construct: also called human AMH36-47; AMH3647-27 (Human)
T22 peptide: GLIFREDLDWPP

[22] = target: T23, AMH3647-10 (Pig sequence) (Pig); assay: as above
T23 peptide: GLIFHWDWNWPP

[23] = target: T1, AMH3647-25 (Horse sequence); assay: competition ELISA, AMH-coated plate
Experimental: (§1) 1. AMH antigen was diluted with carbonic acid buffer (20 mmol/L CB, pH 9.6) and then coated on a polyvinyl chloride plate. In the pretreatment, the antibody purified by the protein A column and the synthesized short peptides with different human AMH36-47 amino acid mutations (see Table 6 for each synthesized sequence) were subjected to proportion incubation (100 ng/ml antibody: 50 ug/ml truncated antigen) for 30 minutes, that were test samples; the control sample was (100 ng/ml antibody: PBS) and incubated for 30 minutes, and then the test samples after incubation and the control sample were added to AMH antigen plate and incubated for 30 minutes, the plate was washed for 5 times, added with GAM-HRP (1/5000 dilution) and incubated for 30 minutes, the plate was washed for 5 times, and the substrate was added and incubated for 15 minutes. The values under wavelength of 450/620 were read by microplate reader, and the detected OD values were finally calculated and analyzed. The calculation formula was: (control sample OD value−test sample OD value)/control sample OD value, and the criterion for determination was as follows: 90% or more, which represented that there was cross-reaction.

[24] = target: T13, AMH3647-23 (Cattle sequence); assay: competition ELISA, AMH-coated plate
Experimental: as §1

[25] = target: T16, AMH3647-22 (Mouse sequence); assay: competition ELISA, AMH-coated plate
Experimental: as §1

[26] = target: T20, AMH3647-19 (Dog sequence); assay: competition ELISA, AMH-coated plate
Experimental: as §1

B1: monoclonal antibody C9F2-2 (antibody, V domains shown)
VH: EVQLVESGGGLVKPGGSLKLSCAASGFAFSTYDMSWVRQTPEKRLEWVAYISPGGGATYYPDTVKGRFTISRDNAKNTLYLQMTSLKSEDTAMYYCAGRRDYYGMDYWGQGTSVTVSS
VL: DVVMTQTPLSLPVSLGDQASISCRSSQSLVHSNGNTYLHWYLQKPGQSPKLLIYKVSNRFSGVPDRFSGSGSGTDFTLKISRVEAEDLGVYFCSQSTHVPWTFGGGTKLEIK
notes: Mouse hybridoma antibody purified from ascites; the tie is indirect; also called hybridoma CCTCC NO: C2018183
percent inhibition [1]: -2%
percent inhibition [2]: 11%
percent inhibition [3]: 19%
percent inhibition [4]: 3%
percent inhibition [5]: 19%
percent inhibition [6]: -2%
percent inhibition [7]: 2%
percent inhibition [8]: -3%
percent inhibition [9]: 5%
percent inhibition [10]: 3%
percent inhibition (AMH3647-7 (Cat sequence)): 6%
percent inhibition [11]: -6%
percent inhibition [12]: -8%
percent inhibition [13]: 5%
percent inhibition [14]: 9%
percent inhibition [15]: -9%
percent inhibition [16]: 8%
percent inhibition [17]: 11%
percent inhibition [18]: 22%
percent inhibition [19]: -1%
percent inhibition [20]: 8%
percent inhibition [21]: 100%
percent inhibition [22]: 8%
binding result [23]: no binding (tested: 50 ug/ml peptide)
binding result [24]: no binding (tested: 50 ug/ml peptide)
binding result [25]: no binding (tested: 50 ug/ml peptide)
binding result [26]: no binding (tested: 50 ug/ml peptide)
